31 molecules from paper PMC6555819, “Comprehensive study of nuclear receptor DNA binding provides a revised framework for understanding receptor specificity” can be followed below.

B1: NRC3_wobSeed40_DR1_A24G_o1 (dsDNA)
DNA 1: GCTAGCCTAGGTCATGGGCCAGTGTACCACGCGAACGCGATTGACAGCGTAGAATGAAGG
DNA 2: CCTTCATTCTACGCTGTCAATCGCGTTCGCGTGGTACACTGGCCCATGACCTAGGCTAGC
B2: NRC3_wobSeed34_DR1_T23C_o1 (dsDNA)
DNA 1: GCATCGAAAGGTCGAAGGTGAGCATACCCACCCGAAGCGATTGACAGCGTAGAATGAAGG
DNA 2: CCTTCATTCTACGCTGTCAATCGCTTCGGGTGGGTATGCTCACCTTCGACCTTTCGATGC
B3: NRC3_wobSeed53_DR2_A22G_o1 (dsDNA)
DNA 1: GCCCTTACGGGTCACGAGGTTGTAGCACGACGAGCGGCGATTGACAGCGTAGAATGAAGG
DNA 2: CCTTCATTCTACGCTGTCAATCGCCGCTCGTCGTGCTACAACCTCGTGACCCGTAAGGGC
B4: NRC3_wobSeed99_DR4_C13A_o1 (dsDNA)
DNA 1: GCTCTCGGAGGAAACGAAAGGTCAGAGCTCGACATCGCGATTGACAGCGTAGAATGAAGG
DNA 2: CCTTCATTCTACGCTGTCAATCGCGATGTCGAGCTCTGACCTTTCGTTTCCTCCGAGAGC
B5: NRC3_wobSeed123_DR5_G26T_o1 (dsDNA)
DNA 1: GCCCTCGGAGGACAACAGGAGGTCATAGCTGCCAGAGCGATTGACAGCGTAGAATGAAGG
DNA 2: CCTTCATTCTACGCTGTCAATCGCTCTGGCAGCTATGACCTCCTGTTGTCCTCCGAGGGC
B6: NRC3_wobSeed20_DR0_A17T_o1 (dsDNA)
DNA 1: GCAGAATGAGGTTAAGTTCAGGGAAACAGAATACATGCGATTGACAGCGTAGAATGAAGG
DNA 2: CCTTCATTCTACGCTGTCAATCGCATGTATTCTGTTTCCCTGAACTTAACCTCATTCTGC
B7: NRC3_wobSeed61_DR2_A17G_o1 (dsDNA)
DNA 1: GCCGTCCAAGGTCAGCGGGTCAGTGAAAGCGACGTGGCGATTGACAGCGTAGAATGAAGG
DNA 2: CCTTCATTCTACGCTGTCAATCGCCACGTCGCTTTCACTGACCCGCTGACCTTGGACGGC
B8: NRC3_wobSeed125_DR5_A30G_o1 (dsDNA)
DNA 1: GCCCTTACGGGTCACTGACAGGTTATAGCGTTTGGAGCGATTGACAGCGTAGAATGAAGG
DNA 2: CCTTCATTCTACGCTGTCAATCGCTCCAAACGCTATAACCTGTCAGTGACCCGTAAGGGC
B9: NRC3_wobSeed87_DR3_A21T_o1 (dsDNA)
DNA 1: GCCGAACTAGGTCATCCAGGTCAGTGAATACATTGAGCGATTGACAGCGTAGAATGAAGG
DNA 2: CCTTCATTCTACGCTGTCAATCGCTCAATGTATTCACTGACCTGGATGACCTAGTTCGGC
B10: NRC3_wobSeed124_DR5_T26A_o1 (dsDNA)
DNA 1: GCCCTACTGGGCCATTCAGAGGTCAATGATCATATGGCGATTGACAGCGTAGAATGAAGG
DNA 2: CCTTCATTCTACGCTGTCAATCGCCATATGATCATTGACCTCTGAATGGCCCAGTAGGGC
B11: NRC3_wobSeed124_DR5_A14G_o1 (dsDNA)
DNA 1: GCCCTACTGGGCCGTTCAGAGGTCATTGATCATATGGCGATTGACAGCGTAGAATGAAGG
DNA 2: CCTTCATTCTACGCTGTCAATCGCCATATGATCAATGACCTCTGAACGGCCCAGTAGGGC
B12: NRC3_wobSeed37_DR1_G10A_o1 (dsDNA)
DNA 1: GCCGTCCAAAGTCAAAGGTCAGTGAAGAGATGACGGGCGATTGACAGCGTAGAATGAAGG
DNA 2: CCTTCATTCTACGCTGTCAATCGCCCGTCATCTCTTCACTGACCTTTGACTTTGGACGGC
B13: NRC3_wobSeed75_DR3_G16A_o1 (dsDNA)
DNA 1: GCTCTCGGAGGACACAAAGGTCAGAGCTTTCCAGAGGCGATTGACAGCGTAGAATGAAGG
DNA 2: CCTTCATTCTACGCTGTCAATCGCCTCTGGAAAGCTCTGACCTTTGTGTCCTCCGAGAGC
B14: NRC3_wobSeed137_DR5_T27C_o1 (dsDNA)
DNA 1: GCATATGTAGGTTACATCCGGGTCATCCAGGCTATGGCGATTGACAGCGTAGAATGAAGG
DNA 2: CCTTCATTCTACGCTGTCAATCGCCATAGCCTGGATGACCCGGATGTAACCTACATATGC
B15: NRC3_wobSeed18_DR0_A4T_o1 (dsDNA)
DNA 1: GCGTTACAGGGTCAAGGCCAGAGTACGCGTATTGATGCGATTGACAGCGTAGAATGAAGG
DNA 2: CCTTCATTCTACGCTGTCAATCGCATCAATACGCGTACTCTGGCCTTGACCCTGTAACGC
B16: NRC3_wobSeed141_DR5_G21C_o1 (dsDNA)
DNA 1: GCAGTCAAAGTTCAGGACGACGTAACGTAAAGCACGGCGATTGACAGCGTAGAATGAAGG
DNA 2: CCTTCATTCTACGCTGTCAATCGCCGTGCTTTACGTTACGTCGTCCTGAACTTTGACTGC
B17: NRC3_wobSeed58_DR2_G21A_o1 (dsDNA)
DNA 1: GCATCGAAAGGTCGTGAGGTAAGTATACAGAAAGGCGCGATTGACAGCGTAGAATGAAGG
DNA 2: CCTTCATTCTACGCTGTCAATCGCGCCTTTCTGTATACTTACCTCACGACCTTTCGATGC
B18: NRC3_wobSeed27_DR1_G10T_o1 (dsDNA)
DNA 1: GCACTCGGATGACAAAGGTCAGAGCTACGCCAGTGAGCGATTGACAGCGTAGAATGAAGG
DNA 2: CCTTCATTCTACGCTGTCAATCGCTCACTGGCGTAGCTCTGACCTTTGTCATCCGAGTGC
B19: NRC3_wobSeed27_DR1_A23G_o1 (dsDNA)
DNA 1: GCACTCGGAGGACAAAGGTCAGGGCTACGCCAGTGAGCGATTGACAGCGTAGAATGAAGG
DNA 2: CCTTCATTCTACGCTGTCAATCGCTCACTGGCGTAGCCCTGACCTTTGTCCTCCGAGTGC
B20: NRC3_wobSeed82_DR3_G17C_o1 (dsDNA)
DNA 1: GCATCGAAAGGTCGACCAGGTGAGTATACACCGTTTGCGATTGACAGCGTAGAATGAAGG
DNA 2: CCTTCATTCTACGCTGTCAATCGCAAACGGTGTATACTCACCTGGTCGACCTTTCGATGC
B21: NRC3_wobSeed133_DR5_G22A_o1 (dsDNA)
DNA 1: GCCGTCCAAGGTCAATGCTAGATCAGTGAAAGCATTGCGATTGACAGCGTAGAATGAAGG
DNA 2: CCTTCATTCTACGCTGTCAATCGCAATGCTTTCACTGATCTAGCATTGACCTTGGACGGC
B22: NRC3_wobSeed135_DR5_G26A_o1 (dsDNA)
DNA 1: GCCGAACTAGGTCATTGACAGGACAATGAATAGTAAGCGATTGACAGCGTAGAATGAAGG
DNA 2: CCTTCATTCTACGCTGTCAATCGCTTACTATTCATTGTCCTGTCAATGACCTAGTTCGGC
B23: NRC3_wobSeed134_DR5_G26T_o1 (dsDNA)
DNA 1: GCGCTGCTAGGTCAACTGATGGTCATCTAAAGCTCGGCGATTGACAGCGTAGAATGAAGG
DNA 2: CCTTCATTCTACGCTGTCAATCGCCGAGCTTTAGATGACCATCAGTTGACCTAGCAGCGC
B24: NRC3_wobSeed136_DR5_T27C_o1 (dsDNA)
DNA 1: GCTAGCCTAGGTCATTCAGGGGCCAGCATAGAAAGCGCGATTGACAGCGTAGAATGAAGG
DNA 2: CCTTCATTCTACGCTGTCAATCGCGCTTTCTATGCTGGCCCCTGAATGACCTAGGCTAGC
B25: NRC3_wobSeed4_DR0_G11T_o1 (dsDNA)
DNA 1: GCCCTACTGGTCCAAGGTCATTGATCAGTCAAAGCAGCGATTGACAGCGTAGAATGAAGG
DNA 2: CCTTCATTCTACGCTGTCAATCGCTGCTTTGACTGATCAATGACCTTGGACCAGTAGGGC
B26: NRC3_wobSeed4_DR0_G11A_o1 (dsDNA)
DNA 1: GCCCTACTGGACCAAGGTCATTGATCAGTCAAAGCAGCGATTGACAGCGTAGAATGAAGG
DNA 2: CCTTCATTCTACGCTGTCAATCGCTGCTTTGACTGATCAATGACCTTGGTCCAGTAGGGC
B27: NRC3_wobSeed65_DR2_G11T_o1 (dsDNA)
DNA 1: GCATATGTAGTTTATCGGGTCATTCAGTTTGCGCATGCGATTGACAGCGTAGAATGAAGG
DNA 2: CCTTCATTCTACGCTGTCAATCGCATGCGCAAACTGAATGACCCGATAAACTACATATGC
B28: NRC3_wobSeed2_DR0_T5G_o1 (dsDNA)
DNA 1: GCCCGAGTTGGTCAAGGTCACACACGCTATAGGTACGCGATTGACAGCGTAGAATGAAGG
DNA 2: CCTTCATTCTACGCTGTCAATCGCGTACCTATAGCGTGTGTGACCTTGACCAACTCGGGC
B29: NRC3_wobSeed2_DR0_C23T_o1 (dsDNA)
DNA 1: GCCCTAGTTGGTCAAGGTCACATACGCTATAGGTACGCGATTGACAGCGTAGAATGAAGG
DNA 2: CCTTCATTCTACGCTGTCAATCGCGTACCTATAGCGTATGTGACCTTGACCAACTAGGGC
B30: NRC3_wobSeed2_DR0_A24C_o1 (dsDNA)
DNA 1: GCCCTAGTTGGTCAAGGTCACACCCGCTATAGGTACGCGATTGACAGCGTAGAATGAAGG
DNA 2: CCTTCATTCTACGCTGTCAATCGCGTACCTATAGCGGGTGTGACCTTGACCAACTAGGGC
B31: NRC3_wobSeed5_DR0_A25C_o1 (dsDNA)
DNA 1: GCCCTTACGGGTCAAGGTTATAGCCCGGGTGGTACGGCGATTGACAGCGTAGAATGAAGG
DNA 2: CCTTCATTCTACGCTGTCAATCGCCGTACCACCCGGGCTATAACCTTGACCCGTAAGGGC

Chain of LXRa:RXRa (Q13133 whole entry, chain 1 of 2): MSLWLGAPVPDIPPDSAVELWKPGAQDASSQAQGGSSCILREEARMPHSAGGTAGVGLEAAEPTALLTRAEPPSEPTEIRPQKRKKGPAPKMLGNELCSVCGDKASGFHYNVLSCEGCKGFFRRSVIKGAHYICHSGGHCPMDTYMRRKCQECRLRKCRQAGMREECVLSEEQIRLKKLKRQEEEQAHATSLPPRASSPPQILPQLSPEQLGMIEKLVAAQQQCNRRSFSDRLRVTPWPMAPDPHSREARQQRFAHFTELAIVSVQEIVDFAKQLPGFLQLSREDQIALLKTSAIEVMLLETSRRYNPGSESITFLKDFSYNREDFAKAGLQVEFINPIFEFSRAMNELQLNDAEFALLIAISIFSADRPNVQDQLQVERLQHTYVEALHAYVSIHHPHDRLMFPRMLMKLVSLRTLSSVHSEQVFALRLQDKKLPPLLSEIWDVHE
Chain of LXRa:RXRa (P19793 whole entry, chain 2 of 2): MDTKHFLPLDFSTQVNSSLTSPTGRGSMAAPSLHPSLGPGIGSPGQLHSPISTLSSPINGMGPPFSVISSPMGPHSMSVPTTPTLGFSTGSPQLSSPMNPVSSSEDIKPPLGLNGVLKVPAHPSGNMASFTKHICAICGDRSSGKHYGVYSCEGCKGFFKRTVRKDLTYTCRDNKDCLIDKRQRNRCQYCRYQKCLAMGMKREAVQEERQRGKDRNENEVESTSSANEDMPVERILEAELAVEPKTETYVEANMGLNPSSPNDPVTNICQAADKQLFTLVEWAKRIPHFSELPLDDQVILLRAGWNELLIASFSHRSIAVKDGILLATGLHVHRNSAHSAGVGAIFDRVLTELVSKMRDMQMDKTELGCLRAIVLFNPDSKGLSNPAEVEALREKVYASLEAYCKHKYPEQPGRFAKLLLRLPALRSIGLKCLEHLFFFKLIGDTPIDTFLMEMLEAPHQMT

This data set concerns the target LXRa:RXRa (Homo sapiens, UniProt Q13133;P19793 full;full). Briefly: no ligand; PBM; 270 nM : 90 nM RXRa; PBS pH 7.4, 2% milk, 0.02% Triton X-100, 1 mM DTT, BSA, 0.4 mg/ml salmon testes DNA. The note with it: tags: His kept;His cleaved; copies: 1;1; label: surface-attached array probe. In outline:
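Binding buffer was PBS pH 7.4 with 2% milk, 0.02% Triton X-100, 1 mM DTT, 0.2 mg/mL BSA and 0.4 mg/ml salmon testes DNA. In it, ligand-free nuclear receptor dimers were incubated 1 h on custom Agilent 4×180K protein-binding microarrays carrying double-stranded probes. Antibodies against each partner (one per run) detected binding, and z-scores were calculated against random background probes after regression normalization of scanned fluorescence.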
In the case of B1, the binding signal was 3.31 PBM z-score against 500 random probes.
Then B2, with 3.46 PBM z-score against 500 random probes.
The result for B3 reads 4.14 PBM z-score against 500 random probes.
On to B4, for which the binding signal was 3.75 PBM z-score against 500 random probes.
The result for B5 reads 3.93 PBM z-score against 500 random probes.
The result for B6 reads 3.43 PBM z-score against 500 random probes; that for B7, 3.86 PBM z-score against 500 random probes.
Then B8, with 4.16 PBM z-score against 500 random probes; and B9, with 3.37 PBM z-score against 500 random probes.
With B10, the binding signal was 3.77 PBM z-score against 500 random probes.
Then B11, with 3.51 PBM z-score against 500 random probes.
Regarding B12, the binding signal is 3.96 PBM z-score against 500 random probes.
B13: the binding signal was 3.54 PBM z-score against 500 random probes.
With B14, the binding signal is 4.22 PBM z-score against 500 random probes.
The result for B15 reads 4.02 PBM z-score against 500 random probes; that for B16, 3.38 PBM z-score against 500 random probes; that for B17, 4.07 PBM z-score against 500 random probes.
The result for B18 reads 4.09 PBM z-score against 500 random probes; that for B19, 4.04 PBM z-score against 500 random probes.
The result for B20 reads 3.67 PBM z-score against 500 random probes; that for B21, 4.19 PBM z-score against 500 random probes; that for B22, 3.59 PBM z-score against 500 random probes.
On to B23, for which the binding signal is 3.56 PBM z-score against 500 random probes.
Then B24, with 3.99 PBM z-score against 500 random probes; and B25, with 3.7 PBM z-score against 500 random probes; and B26, with 3.62 PBM z-score against 500 random probes.
Then B27, with 3.34 PBM z-score against 500 random probes; and B28, with 3.9 PBM z-score against 500 random probes.
Then B29, with 3.72 PBM z-score against 500 random probes; and B30, with 3.48 PBM z-score against 500 random probes; and B31, with 3.64 PBM z-score against 500 random probes.
